Experimental data: patent US20170121318, “USE OF SMALL MOLECULE INHIBITORS TO KLF10 FOR MODULATION OF T REGULATORY CELLS AND CANCER IMMUNOTHERAPY” (THE BRIGHAM AND WOMEN'S HOSPITAL, INC., published 2017)

Target: KLF10 (TIEG1) (UniProt Q13118 Q13118:1-480)
Experiment: EMSA; 100 ng protein, 5 fmol probe, 5 mM MgCl2, poly(dI-dC), 0.05% NP-40, room temperature; binding inhibited by compounds #48, #48-15, #15-09
Conditions: tags: GST fusion (GST-KLF10); Novus Biologicals; label: 3' biotin
Protocol: The identified small molecule compounds were next examined for effects on KLF10 DNA-protein binding.
KLF10 recombinant protein was obtained from Novus Biologicals. […] End-labeled oligos (1 μmol/L) were annealed in a buffer system with 10 mM Tris, 50 mM NaCl, pH 8.0 by heating at 95° C. for 5 min, then slowly cooled to 65° C. for 30 min incubation, and cooled to room temperature. […] Compounds were incubated with KLF10 in a reaction system for 4 hrs at room temperature, and then Biotin-labeled probes were added for a 1 hr incubation.

Chain of KLF10 (TIEG1) (Q13118 whole entry, one chain of several): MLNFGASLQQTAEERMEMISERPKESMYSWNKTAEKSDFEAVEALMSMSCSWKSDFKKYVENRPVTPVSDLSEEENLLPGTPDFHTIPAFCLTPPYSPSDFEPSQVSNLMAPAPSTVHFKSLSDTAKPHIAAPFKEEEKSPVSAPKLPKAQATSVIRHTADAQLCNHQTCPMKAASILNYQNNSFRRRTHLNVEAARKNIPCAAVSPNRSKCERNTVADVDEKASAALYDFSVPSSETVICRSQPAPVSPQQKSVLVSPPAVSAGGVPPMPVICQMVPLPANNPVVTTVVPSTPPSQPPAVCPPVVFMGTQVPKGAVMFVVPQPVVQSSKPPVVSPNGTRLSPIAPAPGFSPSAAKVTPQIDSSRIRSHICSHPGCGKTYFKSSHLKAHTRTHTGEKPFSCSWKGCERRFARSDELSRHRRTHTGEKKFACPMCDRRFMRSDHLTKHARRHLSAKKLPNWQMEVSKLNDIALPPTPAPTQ

B1: KLF10 consensus DNA-binding sequence (dsDNA)
DNA 1: GCAGTGAAAAGGGGGTGTGTCAGGATGC
DNA 2: GCATCCTGACACACCCCCTTTTCACTGC
B1: binds.
